Test results taken from patent US20240182408A1, “DRIED PRENCSO COMPOSITION” (HOUSE FOODS GROUP INC., priority 2021, published 2024).

Assay: specific activity of LFS
Format: biochemical
Details: rLFS used in Examples

B1: rLFS: recombinant lachrymatory factor synthase (E2-3) produced in E. coli, GST tag removed (protein, UniProt P59082 13-169, looked up)
Lachrymatory-factor synthase: DSANGARKWSGKVHALLPNTKPEQAWTLLKDFINLHKVMPSLSVCELVEGEANVVGCVRYVKGIMHPIEEEFWAKEKLVALDNKNMSYSYIFTECFTGYEDYTATMQIVEGPEHKGSRFDWSFQCKYIEGMTESAFTEILQHWATEIGQKIEEVCSA
specific activity: 6.0×10^6 area/μg
